B1: PGT128 (wild-type IgG, PGT128 heavy chain with PGT128 light chain) (antibody, V domains shown)
VH: QPQLQESGPTLVEASETLSLTCAVSGDSTAACNSFWGWVRQPPGKGLEWVGSLSHCASYWNRGWTYHNPSLKSRLTLALDTPKNLVFLKLNSVTAADTATYYCARFGGEVLRYTDWPKPAWVDLWGRGTLVTVSS
VL: QSALTQPPSASGSPGQSITISCTGTSNNFVSWYQQHAGKAPKLVIYDVNKRPSGVPDRFSGSKSGNTASLTVSGLQTDDEAVYYCGSLVGNWDVIFGGGTKLTVL
notes: PGT128 heavy chain; PGT128 light chain; also called PGT128-H/PGT128-L; source: HEK 293T cells (methods; the results say 293F), transient transfection in 96-well microplates, supernatant used directly
B2: PGT121 (wild-type IgG, PGT121 heavy chain with PGT121 light chain) (antibody, V domains shown)
VH: QMQLQESGPGLVKPSETLSLTCSVSGASISDSYWSWIRRSPGKGLEWIGYVHKSGDTNYSPSLKSRVNLSLDTSKNQVSLSLVAATAADSGKYYCARTLHGRRIYGIVAFNEWFTYFYMDVWGNGTQVTVSS
VL: DISVAPGETARISCGEKSLGSRAVQWYQHRAGQAPSLIIYNNQDRPSGIPERFSGSPDSPFGTTATLTITSVEAGDEADYYCHIWDSRVPTKWVFGGGTTLTVL
notes: PGT121 heavy chain; PGT121 light chain; also called PGT121-H/PGT121-L; source: HEK 293T cells (methods; the results say 293F), transient transfection in 96-well microplates, supernatant used directly

Assays:
Assay in all cases: ELISA; 200 ng gp120 coated on Maxisorb 96-well plates in PBS overnight at 4°C; blocked with PBS 5% dry milk; 25–50 µl antibody supernatant 1 h at RT; HRP goat anti-human IgG (H+L); TMB, OD450; absorbance normalised by the expression titer
Details in all cases: one partner purified
[1] = biological target: T1, HIV-1 YU2 gp120 monomeric protein (HIV-1 clade B, primary isolate YU2, UniProt P35961)
T1 construct: gp120 envelope glycoprotein (the gp120 product of Env gp160) of HIV-1 primary isolate YU2, full-length gp120, monomeric

[2] = biological target: T2, HIV-1 CAAN gp120 monomeric protein (HIV-1 subtype B, isolate CAAN …, UniProt Q5G5U4, strain)
T2 construct: gp120 envelope glycoprotein (the gp120 product of Env gp160) of HIV-1 primary isolate CAAN, full-length gp120, monomeric

[3] = biological target: T3, HIV-1 BaL gp120 monomeric protein (HIV-1 subtype B, isolate BaL (clone not …, UniProt Q2MKA8, strain))
T3 construct: gp120 envelope glycoprotein (the gp120 product of Env gp160) of HIV-1 primary isolate BaL, full-length gp120, monomeric

| Binder | binding result [1] | binding result [2] | binding result [3] |
| --- | --- | --- | --- |
| B1 | binds | binds |  |
| B2 |  | binds | binds |

Source: paper PMC3576407, “N332-Directed Broadly Neutralizing Antibodies Use Diverse Modes of HIV-1 Recognition: Inferences from Heavy-Light Chain Complementation of Function” (PLoS ONE, 2013)
